Molecular target: MET receptor (endogenous, on EHMES-1 cells) (human (endogenous in EHMES-1)) (UniProt P08581)

MET receptor Tyr1234/1235 phosphorylation (cell-based enzyme-linked immunosorbent assay) in EHMES-1 cells against the concentration of aMD5-PEG11; bell-shaped profile: 120 nM
Substance: MET receptor (endogenous, on EHMES-1 cells) (from UniProt P08581 25-1390)
